The subject of data set [1] is T1, His-FepR wt (Listeria monocytogenes EGD-e), ORF:2866136e.
T1 sequence: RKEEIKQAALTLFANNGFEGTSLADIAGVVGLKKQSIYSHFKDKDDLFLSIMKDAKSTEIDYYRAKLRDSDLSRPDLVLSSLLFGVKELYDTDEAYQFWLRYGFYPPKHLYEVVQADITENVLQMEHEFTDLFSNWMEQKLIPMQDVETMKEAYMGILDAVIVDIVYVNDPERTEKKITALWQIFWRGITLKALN
In words: EMSA. The conditions noted are these: […] (25 mM Tris, pH 5.5), 0.15 mM BSA, 2.5 mM EDTA, 10% glycerol, 20 mM DTT, 5 min at 25 C.

Data set [2] relates to T2, His-FepR L24F L23F (Listeria monocytogenes EGD-e), ORF:2866136e.
T2 sequence: T1 sequence with L23F
Put plainly: EMSA. The conditions noted are these: […] (25 mM Tris, pH 5.5), 0.15 mM BSA, 2.5 mM EDTA, 10% glycerol, 20 mM DTT, 5 min at 25 C.

Here are results for two sequences from PMC10580936.

Numbering of substitutions follows the chain as printed.

For the sequence “CATTCCACTCCTCTCACAAAAACTGACGACCGTTCGTAAGTCATTTTCTCATGAAAAAAATTCTTTGTCAACAAAAAAATCCACTCTTTTAAAAGAGTGGATTCATGGATTTATTTTTCTTCTAAAAATTCGCTAATCAATTCGTATGTC (double strand) [PfepR wt]”, the results for the binding result in data set [1] and in data set [2] were “binds” and “no binding”, respectively. With “CATTCCACTCCTCTCACAAAAACTGACGAACGTTCGTAAGTCATTTTCTCATGAAAAAAATTCTTTGTCAACAAAAAAATCCACTCTTTTAAAAGAGTGGATTCATGGATTTATTTTTCTTCTAAAAATTCGCTAATCAATTCGTATGTC (double strand) [PfepR G-27T]”, the binding entry in data set [1] is “no binding”.
